Substrate in this series: N[C@@H](CO)C(=O)O
Put plainly: purified protein, by the assay type. As to conditions: pH 7.6; 37.0 °C.

B1: EcSerRS (Escherichia coli K-12) (protein)
chain: MLDPNLLRNEPDAVAEKLARRGFKLDVDKLGALEERRKVLQVKTENLQAERNSRSKSIGQAKARGEDIEPLRLEVNKLGEELDAAKAELDALQAEIRDIALTIPNLPADEVPVGKDENDNVEVSRWGTPREFDFEVRDHVTLGEMHSGLDFAAAVKLTGSRFVVMKGQIARMHRALSQFMLDLHTEQHGYSENYVPYLVNQDTLYGTGQLPKFAGDLFHTRPLEEEADTSNYALIPTAEVPLTNLVRGEIIDEDDLPIKMTAHTPCFRSEAGSYGRDTRGLIRMHQFDKVEMVQIVRPEDSMAALEEMTGHAEKVLQLLGLPYRKIILCTGDMGFGACKTYDLEVWIPAQNTYREISSCSNVWDFQARRMQARCRSKSDKKTRLVHTLNGSGLAVGRTLVAVMENYQQADGRIEVPEVLRPYMNGLEYIG
Consider B1, for which the Km was 4.706 ± 0.706 mM.

B2: SaSerRS (Staphylococcus aureus subsp. aureus NCTC 8325) (protein)
chain: MLDIRLFRNEPDTVKSKIELRGDDPKVVDEILELDEQRRKLISATEEMKARRNKVSEEIALKKRNKENADDVIAEMRTLGDDIKEKDSQLNEIDNKMTGILCRIPNLISDDVPQGESDEDNVEVKKWGTPREFSFEPKAHWDIVEELKMADFDRAAKVSGARFVYLTNEGAQLERALMNYMITKHTTQHGYTEMMVPQLVNADTMYGTGQLPKFEEDLFKVEKEGLYTIPTAEVPLTNFYRNEIIQPGVLPEKFTGQSACFRSEAGSAGRDTRGLIRLHQFDKVEMVRFEQPEDSWNALEEMTTNAEAILEELGLPYRRVILCTGDIGFSASKTYDLEVWLPSYNDYKEISSCSNCTDFQARRANIRFKRDKAAKPELAHTLNGSGLAVGRTFAAIVENYQNEDGTVTIPEALVPFMGGKTQISKPVK
In the case of B2, the Km stood at 4.39 ± 0.654 mM.

By Km is commonly meant the substrate concentration at which the rate is half of its maximum.

Values taken from article doi:10.1101/586255v1.
